Key:
HeLa Kyoto [1] = assay: solubility in G1/S (NP-40 vs SDS abundance) (log2 ratio); higher = more soluble; details: cell cycle stage: G1/S
HeLa Kyoto [2] = assay: melting temperature (median over replicates), in situ; higher = more thermally stable
HeLa Kyoto [3] = assay: solubility change mitosis vs G1/S (difference of NP-40 vs SDS log2 ratios) (log2 ratio difference); higher = more soluble in mitosis
HeLa Kyoto [4] = assay: thermal stability score vs G1/S (z-score of summed log2 fold changes over temperatures); higher = more thermally stable than in G1/S
[5] = cell cycle stage: early G1 (4.5 h after nocodazole release)
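For melting temperature (median over replicates), in situ in this document: HeLa Kyoto cells synchronized by double thymidine or nocodazole block, proteins quantified by TMT10plex mass spectrometry, three independent biological replicates.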
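For solubility change mitosis vs G1/S (difference of NP-40 vs SDS log2 ratios) in this document: synchronized HeLa Kyoto cells (double thymidine block for G1/S, nocodazole release for mitosis), protein amounts in NP-40 versus SDS lysates quantified by mass spectrometry, three biological replicates.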
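For solubility in G1/S (NP-40 vs SDS abundance) in this document: HeLa Kyoto cells arrested at G1/S by double thymidine block, proteins quantified by TMT10plex mass spectrometry in mild NP-40 versus SDS extracts, three biological replicates.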
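For thermal stability score vs G1/S (z-score of summed log2 fold changes over temperatures) in this document: synchronized HeLa Kyoto cells, proteins quantified by TMT10plex mass spectrometry, three biological replicates, mitosis taken 0.5 h after nocodazole release, G1/S directly after double thymidine block.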

**Q.** How did the “solubility in G1/S (log2)” value (HeLa Kyoto [1]) turn out when “MADPAAPTPAAPAPAQAPAPAPEAVPAPAAAPVPAPAPASDSASGPSSDSGPEAGSQRLLFSHDLVSGRYRGSVHFGLVRLIHGEDSDSEGEEEGRGSSGCSEAGGAGHEEGRASPLRRGYVRVQWYPEGVKQHVKETKLKLEDRSVVPRDVVRHMRSTDSQCGTVIDVNIDCAVKLIGTNCIIYPVNSKDLQHIWPFMYGDYIAYDCWLGKVYDLKNQIILKLSNGARCSMNTEDGAKLYDVCPHVSDSGLFFDDSYGFYPGQVLIGPAKIFSSVQWLSGVKPVLSTKSKFRVVVEEVQVVELKVTWITKSFCPGGTDSVSPPPSVITQENLGRVKRLGCFDHAQRQLGERCLYVFPAKVEPAKIAWECPEKNCAQGEGSMAKKVKRLLKKQVVRIMSCSPDTQCSRDHSMEDPDKKGESKTKSEAESASPEETPDGSASPVEMQDEGAEEPHEAGEQLPPFLLKEGRDDRLHSAEQDADDEAADDTDDTSSVTSSASSTTSSQSGSGTSRKKSIPLSIKNLKRKHKRKKNKITRDFKPGDRVAVEVVTTMTSADVMWQDGSVECNIRSNDLFPVHHLDNNEFCPGDFVVDKRVQSCPDPAVYGVVQSGDHIGRTCMVKWFKLRPSGDDVELIGEEEDVSVYDIADHPDFRFRTTDIVIRIGNTEDGAPHKEDEPSVGQVARVDVSSKVEVVWADNSKTIILPQHLYNIESEIEESDYDSVEGSTSGASSDEWEDDSDSWETDNGLVEDEHPKIEEPPIPPLEQPVAPEDKGVVISEEAATAAVQGAVAMAAPMAGLMEKAGKDGPPKSFRELKEAIKILESLKNMTVEQLLTGSPTSPTVEPEKPTREKKFLDDIKKLQENLKKTLDNVAIVEEEKMEAVPDVERKEDKPEGQSPVKAEWPSETPVLCQQCGGKPGVTFTSAKGEVFSVLEFAPSNHSFKKIEFQPPEAKKFFSTVRKEMALLATSLPEGIMVKTFEDRMDLFSALIKGPTRTPYEDGLYLFDIQLPNIYPAVPPHFCYLSQCSGRLNPNLYDNGKVCVSLLGTWIGKGTERWTSKSSLLQVLISIQGLILVNEPYYNEAGFDSDRGLQEGYENSRCYNEMALIRVVQSMTQLVRRPPEVFEQEIRQHFSTGGWRLVNRIESWLETHALLEKAQALPNGVPKASSSPEPPAVAELSDSGQQEPEDGGPAPGEASQGSDSEGGAQGLASASRDHTDQTSETAPDASVPPSVKPKKRRKSYRSFLPEKSGYPDIGFPLFPLSKGFIKSIRGVLTQFRAALLEAGMPECTEDK [UBE2O]” was run?
**A.** -0.0555

**Q.** What about the melting temperature (HeLa Kyoto [2]; cell cycle stage: G1/S) of the same sequence?
**A.** 51.7 °C

**Q.** And the melting temperature (HeLa Kyoto [2]; cell cycle stage: mitosis)?
**A.** 51.1 °C

**Q.** What about the “solubility change mitosis (log2)” value (HeLa Kyoto [3]) of the same sequence?
**A.** -0.0785

**Q.** What about the thermal stability score (HeLa Kyoto [4]; [5]) of the same sequence?
**A.** -1.41

**Q.** What about the thermal stability score (HeLa Kyoto [4]; cell cycle stage: mitosis) of the same sequence?
**A.** -1.46

**Q.** How did the “solubility in G1/S (log2)” value (HeLa Kyoto [1]) turn out when “MADPEVCCFITKILCAHGGRMALDALLQEIALSEPQLCEVLQVAGPDRFVVLETGGEAGITRSVVATTRARVCRRKYCQRPCDNLHLCKLNLLGRCNYSQSERNLCKYSHEVLSEENFKVLKNHELSGLNKEELAVLLLQSDPFFMPEICKSYKGEGRQQICNQQPPCSRLHICDHFTRGNCRFPNCLRSHNLMDRKVLAIMREHGLNPDVVQNIQDICNSKHMQKNPPGPRAPSSHRRNMAYRARSKSRDRFFQGSQEFLASASASAERSCTPSPDQISHRASLEDAPVDDLTRKFTYLGSQDRARPPSGSSKATDLGGTSQAGTSQRFLENGSQEDLLHGNPGSTYLASNSTSAPNWKSLTSWTNDQGARRKTVFSPTLPAARSSLGSLQTPEAVTTRKGTGLLSSDYRIINGKSGTQDIQPGPLFNNNADGVATDITSTRSLNYKSTSSGHREISSPRIQDAGPASRDVQATGRIADDADPRVALVNDSLSDVTSTTSSRVDDHDSEEICLDHLCKGCPLNGSCSKVHFHLPYRWQMLIGKTWTDFEHMETIEKGYCNPGIHLCSVGSYTINFRVMSCDSFPIRRLSTPSSVTKPANSVFTTKWIWYWKNESGTWIQYGEEKDKRKNSNVDSSYLESLYQSCPRGVVPFQAGSRNYELSFQGMIQTNIASKTQKDVIRRPTFVPQWYVQQMKRGPDHQPAKTSSVSLTATFRPQEDFCFLSSKKYKLSEIHHLHPEYVRVSEHFKASMKNFKIEKIKKIENSELLDKFTWKKSQMKEEGKLLFYATSRAYVESICSNNFDSFLHETHENKYGKGIYFAKDAIYSHKNCPYDAKNVVMFVAQVLVGKFTEGNITYTSPPPQFDSCVDTRSNPSVFVIFQKDQVYPQYVIEYTEDKACVIS [ZC3HAV1]” was run?
**A.** -0.202

**Q.** And the melting temperature (HeLa Kyoto [2]; cell cycle stage: G1/S)?
**A.** 48.1 °C

**Q.** What about the melting temperature (HeLa Kyoto [2]; cell cycle stage: mitosis) of the same sequence?
**A.** 48.8 °C

**Q.** What about the “solubility change mitosis (log2)” value (HeLa Kyoto [3]) of the same sequence?
**A.** 0.0381

**Q.** What about the thermal stability score (HeLa Kyoto [4]; [5]) of the same sequence?
**A.** 1.07

**Q.** What about the thermal stability score (HeLa Kyoto [4]; cell cycle stage: mitosis) of the same sequence?
**A.** 1.97

**Q.** For “MADPRVRQIKIKTGVVKRLVKEKVMYEKEAKQQEEKIEKMRAEDGENYDIKKQAEILQESRMMIPDCQRRLEAAYLDLQRILENEKDLEEAEEYKEARLVLDSVKLEA [TBCA]”, which “solubility in G1/S (log2)” value (HeLa Kyoto [1]) is on record?
**A.** 0.241

**Q.** What about the melting temperature (HeLa Kyoto [2]; cell cycle stage: G1/S) of the same sequence?
**A.** 55.4 °C

**Q.** What about the melting temperature (HeLa Kyoto [2]; cell cycle stage: mitosis) of the same sequence?
**A.** 53 °C

**Q.** What about the “solubility change mitosis (log2)” value (HeLa Kyoto [3]) of the same sequence?
**A.** 0.298

**Q.** And the thermal stability score (HeLa Kyoto [4]; [5])?
**A.** -7.45

**Q.** And the thermal stability score (HeLa Kyoto [4]; cell cycle stage: mitosis)?
**A.** -6.72

**Q.** For “MADPWQECMDYAVTLARQAGEVVCEAIKNEMNVMLKSSPVDLVTATDQKVEKMLISSIKEKYPSHSFIGEESVAAGEKSILTDNPTWIIDPIDGTTNFVHRFPFVAVSIGFAVNKKIEFGVVYSCVEGKMYTARKGKGAFCNGQKLQVSQQEDITKSLLVTELGSSRTPETVRMVLSNMEKLFCIPVHGIRSVGTAAVNMCLVATGGADAYYEMGIHCWDVAGAGIIVTEAGGVLMDVTGGPFDLMSRRVIAANNRILAERIAKEIQVIPLQRDDED [IMPA1]”, which “solubility in G1/S (log2)” value (HeLa Kyoto [1]) is on record?
**A.** 0.0966

**Q.** What about the melting temperature (HeLa Kyoto [2]; cell cycle stage: G1/S) of the same sequence?
**A.** 59.9 °C

**Q.** What about the melting temperature (HeLa Kyoto [2]; cell cycle stage: mitosis) of the same sequence?
**A.** 61.1 °C

**Q.** What about the “solubility change mitosis (log2)” value (HeLa Kyoto [3]) of the same sequence?
**A.** -0.19

**Q.** What about the thermal stability score (HeLa Kyoto [4]; [5]) of the same sequence?
**A.** -1.12

**Q.** And the thermal stability score (HeLa Kyoto [4]; cell cycle stage: mitosis)?
**A.** -2.39
